Experimental data reported in publication PMC9706563 (2022).
Like-named read-outs stand apart in the source and are kept apart here. Bridge positions count the residues as written; N and C are the ends. Square brackets hold non-standard residues; d marks the D form. Ends that are not written are not given here. * marks the point of attachment. FITC = O=C1OC2(c3ccc(O)cc3Oc3cc(O)ccc32)c2ccc(NC(=S)*)cc21; Phe(4-NO2) = N[C@@H](Cc1ccc([N+](=O)[O-])cc1)C(=O)O; Gla = N[C@@H](CC(C(=O)O)C(=O)O)C(=O)O; Dap = NC[C@H](N)C(=O)O; AEEA = NCCOCCOCC(=O)O

Key:
Assay in all cases: FP
[1] = molecular target: T1, PRMT5-MEP50 complex (full-length, purified) (human | , UniProt O14744 1-637; Q9BQA1 1-342)
T1 sequence (O14744 whole entry, chain 1 of 2): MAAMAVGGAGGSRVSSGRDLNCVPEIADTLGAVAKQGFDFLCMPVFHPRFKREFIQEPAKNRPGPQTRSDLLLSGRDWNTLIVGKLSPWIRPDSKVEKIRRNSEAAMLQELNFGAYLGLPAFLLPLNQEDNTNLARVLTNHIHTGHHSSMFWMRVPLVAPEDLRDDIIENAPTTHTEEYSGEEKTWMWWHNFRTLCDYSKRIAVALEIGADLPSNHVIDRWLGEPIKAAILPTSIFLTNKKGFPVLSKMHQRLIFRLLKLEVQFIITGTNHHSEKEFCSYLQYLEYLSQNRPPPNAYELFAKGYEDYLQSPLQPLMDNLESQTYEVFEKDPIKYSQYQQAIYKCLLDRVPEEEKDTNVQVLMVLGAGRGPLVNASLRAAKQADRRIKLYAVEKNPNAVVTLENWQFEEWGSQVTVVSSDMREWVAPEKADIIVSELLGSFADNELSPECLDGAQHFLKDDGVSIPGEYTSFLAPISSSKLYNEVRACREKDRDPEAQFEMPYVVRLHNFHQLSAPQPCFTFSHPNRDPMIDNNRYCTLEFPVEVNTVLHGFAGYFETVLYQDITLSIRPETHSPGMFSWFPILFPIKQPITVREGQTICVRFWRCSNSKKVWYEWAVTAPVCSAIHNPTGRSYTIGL
T1 sequence (Q9BQA1 whole entry, chain 2 of 2): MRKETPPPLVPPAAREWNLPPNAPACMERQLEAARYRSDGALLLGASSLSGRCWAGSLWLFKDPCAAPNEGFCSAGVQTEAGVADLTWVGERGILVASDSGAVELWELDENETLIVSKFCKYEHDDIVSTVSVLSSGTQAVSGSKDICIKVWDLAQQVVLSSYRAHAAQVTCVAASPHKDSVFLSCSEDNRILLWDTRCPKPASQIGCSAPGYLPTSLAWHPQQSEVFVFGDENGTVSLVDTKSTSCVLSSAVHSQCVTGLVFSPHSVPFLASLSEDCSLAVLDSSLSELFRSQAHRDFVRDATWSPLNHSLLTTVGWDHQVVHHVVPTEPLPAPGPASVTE

[2] = molecular target: T1, PRMT5-MEP50 complex (full-length, …); remark: listed apart in the source
[3] = molecular target: T1, PRMT5-MEP50 complex (full-length, …); remark: listed apart in the source

Binder | Ki [1] [nM] | other results
{FITC-AEEA}-SRVVP[Dap]QFDDADSSD-NH2 (lactam 6-9; not fully specified) [5] |  | Kd [2]: > 2000 nM
SRVVP[dA]QFDDADSSD [peptide 1 (RioK1 PBM with D-Ala)] | 5100 | 
VPGQFDDA[Gla] (also: FITC as in peptide 29) [linear peptide 40 (29 with Asp replaced by Gla)] |  | Kd [3]: 245 nM
VPGQ[Phe(4-NO2)]DDAD (also: FITC as in peptide 29) [linear peptide 41 (29 with Phe replaced by Phe(4-NO2))] |  | Kd [3]: 232 nM

Further lines, with some results ahead:

Ki [1] [nM] | Binder | other results
65000 | SRVVP[dA]QF[dA]DADSSD [peptide 3 (RioK1 PBM with D-Ala at 14 and 17)] | 
1800 | SRVVPGQFDDADSSD (unlabeled; taken as the same span as the printed RioK1 tracer sequence (7BOC entity 2); end groups are in the figure/SI) [peptide 4 (native RioK1 PBM sequence, unlabeled reference)] | 
4500 | SRVVPGQF[dA]DADSSD [peptide 2 (RioK1 PBM with D-Ala)] | 
